Data from US20170267750A1, “Method of Treating Ovarian and Renal Cancer Using Antibodies Against T Cell Immunoglobulin Domain and Mucin Domain 1 (TIM-1) Antigen” (Celldex Therapeutics, Inc., priority 2005, published 2017).
Each block holds one binder with its values, some of them ahead of it.

Tests used:
[1] = molecular target: TIM-1 antigen, soluble extracellular domain of TIM-1 (CG57008-02) with a V5-HIS tag (human) (UniProt Q96D42); experiment: BIAcore 2000, 25 C, mAb captured on goat anti-human surface, TIM-1 antigen injected at 292 nM
Sequence of TIM-1 antigen, soluble extracellular domain of TIM-1 (CG57008-02) with a V5-HIS tag (human) (Q96D42 other isoform, or with tags, fused parts or gaps): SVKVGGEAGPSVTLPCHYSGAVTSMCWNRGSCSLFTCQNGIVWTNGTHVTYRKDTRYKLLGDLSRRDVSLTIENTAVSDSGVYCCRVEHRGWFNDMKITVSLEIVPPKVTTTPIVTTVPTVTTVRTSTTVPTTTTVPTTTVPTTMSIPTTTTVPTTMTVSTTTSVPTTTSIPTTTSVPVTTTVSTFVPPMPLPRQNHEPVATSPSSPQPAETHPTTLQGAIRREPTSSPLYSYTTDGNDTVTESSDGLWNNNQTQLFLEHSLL

[2] = molecular target: TIM-1 (T cell, immunoglobulin domain and mucin domain 1), cell membrane-bound (human) (UniProt Q96D42); experiment: cell-based or functional assay
Sequence of TIM-1 (T cell, immunoglobulin domain and mucin domain 1), cell membrane-bound (human) (Q96D42 21-364): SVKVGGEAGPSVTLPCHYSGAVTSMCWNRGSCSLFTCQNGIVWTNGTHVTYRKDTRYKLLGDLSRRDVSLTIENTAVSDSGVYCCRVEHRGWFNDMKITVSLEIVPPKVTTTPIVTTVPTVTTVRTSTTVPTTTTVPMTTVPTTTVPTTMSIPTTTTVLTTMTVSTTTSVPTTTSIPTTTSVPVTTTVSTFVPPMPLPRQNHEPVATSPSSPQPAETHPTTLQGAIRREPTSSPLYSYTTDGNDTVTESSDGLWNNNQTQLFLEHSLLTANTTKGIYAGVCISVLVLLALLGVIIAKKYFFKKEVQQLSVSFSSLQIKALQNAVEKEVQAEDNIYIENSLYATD

Kd [1]: 3.35 nM
B1: anti-TIM-1 monoclonal antibody 2.54 (antibody, V domains shown)
VH: QVQLEQSGGGVVQPGRSLRLSCAASGFTFTNYGLHWVRQAPGKGLDWVAVIWYDGSHKFYADSVKGRFTISRDNSKNTLFLQMNSLRAEDTAVYYCTRDLDYWGQGTLVTVSS
VL: ETQLTQSPGTLSLSPGERVTLSCRASQSVSNNYLAWYQQKPGQAPRLLIYGASSRATGIPDRFSGSGSGTDFTLTISRLEPEDCAECYCQQYGSSLPLTFGGGTKVEIKR

B2: Auristatin E (AE)-conjugated anti-TIM-1 mAb 2.70.2 (antibody, human IgG4, kappa, V domains shown)
VH: QVQLVESGGGVVQPGRSLRLSCAASGFIFSRYGMHWVRQAPGKGLKWVAVIWYDGSNKLYADSVKGRFTISRDNSKNTLYLQMNSLRAEDTAVYYCARDYYDNSRHHWGFDYWGQGTLVTVSS
VL: DIVMTQTPLSLPVTPGEPASISCRSSRSLLDSDDGNTYLDWYLQKPGQSPQLLIYTLSYRASGVPDRFSGSGSGTDFTLKISRVEAEDVGVYYCMQRVEFPITFGQGTRLEIKR
CAKI-1 cell death, clonogenic assay with AE-conjugated antibody, maximum dose [2]: > 90%

B3: Auristatin E (AE)-conjugated anti-TIM-1 mAb 2.59.2 (antibody, V domains shown)
VH: NNNNNQSGPRLVKPSQTLSLTCTVSGGSISSDGYYWSWIRQHPGKGLEWIGYIYYSGSTFYNPSLKSRVAISVDTSKNQFSLKLSSVTAADTAVYYCARESPHSSNWYSGFDCWGQGTLVTVSS
VL: NNNNTQSPDFQSVTPKEKVTITCRASQSIGSRLHWYQQKPDQSPKLLIKYASQSFSGVPSRFSGSGSGTDFTLTINSLEAEDAATYYCHQSSNLPFTFGPGTKVDIKR
CAKI-1 cell death, clonogenic assay with AE-conjugated antibody, maximum dose [2]: > 90%
